Test results taken from patent US20090130692A1.

T1: human plasmin (Human), P00747
T1 chain: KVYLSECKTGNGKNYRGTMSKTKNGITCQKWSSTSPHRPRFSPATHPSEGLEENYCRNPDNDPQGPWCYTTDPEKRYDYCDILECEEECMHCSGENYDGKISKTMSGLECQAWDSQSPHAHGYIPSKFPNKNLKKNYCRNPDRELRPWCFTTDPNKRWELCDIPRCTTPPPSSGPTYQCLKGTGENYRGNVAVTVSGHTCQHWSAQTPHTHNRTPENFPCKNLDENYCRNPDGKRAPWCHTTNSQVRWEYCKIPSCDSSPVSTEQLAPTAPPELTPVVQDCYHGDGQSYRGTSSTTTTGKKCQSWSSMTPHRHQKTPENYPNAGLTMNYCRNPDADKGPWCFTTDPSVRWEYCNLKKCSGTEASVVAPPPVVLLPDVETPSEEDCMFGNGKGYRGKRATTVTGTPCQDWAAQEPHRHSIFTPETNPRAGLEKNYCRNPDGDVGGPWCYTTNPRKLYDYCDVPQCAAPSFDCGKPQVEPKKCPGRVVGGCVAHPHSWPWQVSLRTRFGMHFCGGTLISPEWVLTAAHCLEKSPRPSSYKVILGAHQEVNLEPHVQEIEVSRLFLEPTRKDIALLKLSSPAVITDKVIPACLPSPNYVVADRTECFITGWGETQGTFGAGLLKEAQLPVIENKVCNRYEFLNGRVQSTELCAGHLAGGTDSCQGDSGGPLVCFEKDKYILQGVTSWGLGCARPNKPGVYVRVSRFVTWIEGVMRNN

T2: porcine trypsin (Porcine), P00761
T2 chain: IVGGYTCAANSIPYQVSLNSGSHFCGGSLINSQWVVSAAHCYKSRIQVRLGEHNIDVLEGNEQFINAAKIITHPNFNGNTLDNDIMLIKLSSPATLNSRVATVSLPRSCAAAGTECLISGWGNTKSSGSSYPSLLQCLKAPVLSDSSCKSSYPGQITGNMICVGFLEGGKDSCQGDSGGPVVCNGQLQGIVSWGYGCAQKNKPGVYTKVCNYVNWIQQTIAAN

B1: MCoTI-R (peptide)
peptide: GVCPRILKKCRRDSDCPGACICRGNGYCG
modifications: not checked
B2: MCoTI-KKV (peptide)
peptide: KKVGVCPKILKKCRRDSDCPGACICRGNGYCG
modifications: not checked
B3: SE-MG-0 (peptide)
peptide: GVCPKILKKCRRDSDCLAGCVCGPNGFCGS
modifications: not checked
B4: SE-MC-K (peptide)
peptide: GVCPKILKKCRRDSDCPGACICRGNGYCG
modifications: not checked
B5: MCoTI-LKRC (peptide)
peptide: GVCPKILKRCRRDSDCPGACICRGNGYCG
modifications: not checked
B6: MCoTI-LKAC (peptide)
peptide: GVCPKILKACRRDSDCPGACICRGNGYCG
modifications: not checked
B7: MCoTI-AlaG (peptide)
peptide: GVCPGILKKCRRDSDCPGACICRGNGYCG
modifications: not checked
B8: MCoTI-LAKC (peptide)
peptide: GVCPKILAKCRRDSDCPGACICRGNGYCG
modifications: not checked
B9: MCoEeTI (peptide)
peptide: GSVCPKILKKCRRDSDCLAGCVCGPNGFCGS
modifications: not checked
B10: MCoTI-LRKC (peptide)
peptide: GVCPKILRKCRRDSDCPGACICRGNGYCG
modifications: not checked

These binders were tested against hK3 (human kallikrein) (Human), P07288 (assay: enzyme inhibition, selectivity panel; apparent Ki (Kiapp)).
Chain of hK3 (human kallikrein) (Human), P07288 (P07288 25-261): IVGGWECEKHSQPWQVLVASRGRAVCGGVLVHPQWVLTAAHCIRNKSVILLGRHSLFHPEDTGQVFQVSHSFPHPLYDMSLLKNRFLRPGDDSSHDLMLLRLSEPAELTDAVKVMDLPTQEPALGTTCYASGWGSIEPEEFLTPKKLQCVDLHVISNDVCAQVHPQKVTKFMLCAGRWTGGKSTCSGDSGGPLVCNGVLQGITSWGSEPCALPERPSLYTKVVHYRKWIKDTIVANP
Binder B1 has a Ki of 100 nM.

Biological target: T1, human plasmin (Human), P00747
Test: as above
B2 gave a Ki of 400 nM. B3 showed a Ki of 600 nM.

What follows are binders tested against human tryptase β-II (Human), P20231 in the same assay as above.
Chain of human tryptase β-II (Human), P20231 (P20231 31-275 limits assumed): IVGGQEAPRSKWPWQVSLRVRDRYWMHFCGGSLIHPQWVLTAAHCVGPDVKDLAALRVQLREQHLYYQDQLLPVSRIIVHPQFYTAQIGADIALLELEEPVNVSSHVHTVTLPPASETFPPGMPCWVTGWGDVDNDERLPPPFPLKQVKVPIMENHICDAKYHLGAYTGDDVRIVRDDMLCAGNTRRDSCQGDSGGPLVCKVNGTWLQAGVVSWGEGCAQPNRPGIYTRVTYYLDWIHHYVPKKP
For B2, the Ki was 4 nM. Binder B3 has a Ki of 70 nM. Binder B1 has a Ki of 40 nM.

Each binder was assayed against human tryptase β-Ia (Human), Q15661 in the same assay as above.
Chain of human tryptase β-Ia (Human), Q15661 (Q15661 31-275 limits assumed): as the sequence (P20231 31-275 limits assumed) above, with R21H, D22G, R23P counted along it
For B2, the Ki was 3 nM. B3 showed a Ki of 70 nM. Work on B1 yielded a Ki of 40 nM.

Biological target: T2, porcine trypsin (Porcine), P00761
Test: as above
In the case of B2, the Ki is reported as 0.4 nM. B3 was tested, and the Ki was 0.3 nM. In the case of B1, the Ki is reported as 0.8 nM.

What follows are binders tested against sheep tryptase ST2 (Sheep) in the same assay as above.
Chain of sheep tryptase ST2 (Sheep) (Q9XSM2 29-273): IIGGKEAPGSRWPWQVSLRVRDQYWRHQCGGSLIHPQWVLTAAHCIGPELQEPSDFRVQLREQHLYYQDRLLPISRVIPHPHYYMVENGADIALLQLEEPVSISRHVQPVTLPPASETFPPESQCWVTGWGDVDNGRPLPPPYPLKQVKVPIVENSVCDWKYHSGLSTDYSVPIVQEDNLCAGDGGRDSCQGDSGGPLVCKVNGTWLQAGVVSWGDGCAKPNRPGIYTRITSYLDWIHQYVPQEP
Binder B2 has a Ki of 100 nM. B3 was tested, and the Ki was 4000 nM. B1 showed a Ki of 1000 nM.

What follows are binders tested against bovine pancreatic trypsin (bovine), P00760 (assay: enzyme inhibition; residual trypsin activity fitted to tight-binding equation (Morrison); apparent Ki (Kiapp)).
Chain of bovine pancreatic trypsin (bovine), P00760 (P00760 24-246): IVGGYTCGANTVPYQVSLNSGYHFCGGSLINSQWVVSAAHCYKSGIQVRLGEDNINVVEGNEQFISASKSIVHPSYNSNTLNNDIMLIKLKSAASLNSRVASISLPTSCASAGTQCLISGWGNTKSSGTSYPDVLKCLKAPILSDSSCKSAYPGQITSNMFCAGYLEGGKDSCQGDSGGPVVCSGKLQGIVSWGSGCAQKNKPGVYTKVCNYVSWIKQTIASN
B4 showed a Ki of 0.3 nM. In the case of B5, the Ki is reported as 0.4 nM. Binder B6 has a Ki of 0.4 nM. With B7 the Ki was 1000 nM. With B2 the Ki was 0.4 nM. B8 was tested, and the Ki was 0.2 nM. With B3 the Ki was 0.3 nM. With B9 the Ki was 0.03 nM. B10 was tested, and the Ki was 0.5 nM. B1 gave a Ki of 0.8 nM.
